Assay results: patent publication US20160108123A1 (Novartis, published 2016)

B1: BAP058-hum01 (antibody, human IgG4 S228P, kappa, V domains shown)
VH: QVQLVQSGAEVKKPGASVKVSCKASGYTFTSYWMYWVRQATGQGLEWMGRIDPNSGSTKYNEKFKNRFTISRDDSKNTAYLQMNSLKTEDTAVYYCARDYRKGLYAMDYWGQGTTVTVSS
VL: DIVMTQTPLSLPVTPGEPASISCKASQDVGTAVAWYLQKPGQSPQLLIYWASTRHTGIPARFSGSGSGTEFTLTISSLQSEDFAVYYCQQYNSYPLTFGQGTKVEIKR
notes: Humanized IgG4(S228P)/human kappa mAb expressed in CHO cells
B2: BAP058-hum09 (antibody, human IgG4 S228P, kappa, V domains shown)
VH: EVQLVQSGAEVKKPGESLRISCKGSGYTFTSYWMYWIRQPPGKGLEWIGRIDPNSGSTKYNEKFKNRVTITADKSTSTAYMELSSLRSEDTAVYYCARDYRKGLYAMDYWGQGTTVTVSS
VL: DIVMTQTPLSLPVTPGEPASISCKASQDVGTAVAWYLQKPGQSPQLLIYWASTRHTGIPARFSGSGSGTEFTLTISSLQSEDFAVYYCQQYNSYPLTFGQGTKVEIKR
notes: as for B1
B3: BAP058-hum02 (antibody, human IgG4 S228P, kappa, V domains shown)
VH: QVQLVQSGAEVKKPGASVKVSCKASGYTFTSYWMYWVRQATGQGLEWMGRIDPNSGSTKYNEKFKNRFTISRDDSKNTAYLQMNSLKTEDTAVYYCARDYRKGLYAMDYWGQGTTVTVSS
VL: DIQMTQSPSSLSASVGDRVTITCKASQDVGTAVAWYLQKPGQSPQLLIYWASTRHTGVPSRFSGSGSGTDFTLTISSLQPEDFATYYCQQYNSYPLTFGQGTKVEIKR
notes: as for B1
B4: BAP058-hum14 (antibody, human IgG4 S228P, kappa, V domains shown)
VH: QVQLVQSGAEVKKPGASVKVSCKASGYTFTSYWMYWVRQATGQGLEWMGRIDPNSGSTKYNEKFKNRFTISRDDSKNTAYLQMNSLKTEDTAVYYCARDYRKGLYAMDYWGQGTTVTVSS
VL: EIVLTQSPDFQSVTPKEKVTITCKASQDVGTAVAWYQQKPGQAPRLLIYWASTRHTGVPSRFSGSGSGTEFTLTISSLQPDDFATYYCQQYNSYPLTFGQGTKVEIKR
notes: as for B1
B5: BAP058-hum07 (antibody, human IgG4 S228P, kappa, V domains shown)
VH: QVQLVQSGAEVKKPGASVKVSCKASGYTFTSYWMYWIRQSPSRGLEWLGRIDPNSGSTKYNEKFKNRFTISRDDSKNTAYLQMNSLKTEDTAVYYCARDYRKGLYAMDYWGQGTTVTVSS
VL: EIVLTQSPATLSLSPGERATLSCKASQDVGTAVAWYLQKPGQSPQLLIYWASTRHTGIPPRFSGSGYGTDFTLTINNIESEDAAYYFCQQYNSYPLTFGQGTKVEIKR
notes: as for B1
B6: BAP058-hum16 (antibody, human IgG4 S228P, kappa, V domains shown)
VH: QVQLVQSGAEVKKPGASVKVSCKASGYTFTSYWMYWIRQSPSRGLEWLGRIDPNSGSTKYNEKFKNRFTISRDDSKNTAYLQMNSLKTEDTAVYYCARDYRKGLYAMDYWGQGTTVTVSS
VL: EIVLTQSPDFQSVTPKEKVTITCKASQDVGTAVAWYQQKPGQAPRLLIYWASTRHTGVPSRFSGSGSGTEFTLTISSLQPDDFATYYCQQYNSYPLTFGQGTKVEIKR
notes: as for B1
B7: BAP058-hum12 (antibody, human IgG4 S228P, kappa, V domains shown)
VH: EVQLVQSGAEVKKPGESLRISCKGSGYTFTSYWMYWVRQAPGQGLEWMGRIDPNSGSTKYNEKFKNRVTISVDTSKNQFSLKLSSVTAADTAVYYCARDYRKGLYAMDYWGQGTTVTVSS
VL: DIQMTQSPSSLSASVGDRVTITCKASQDVGTAVAWYQQKPGQAPRLLIYWASTRHTGVPSRFSGSGSGTDFTFTISSLQPEDIATYYCQQYNSYPLTFGQGTKVEIKR
notes: as for B1
B8: BAP058-hum03 (antibody, human IgG4 S228P, kappa, V domains shown)
VH: EVQLVQSGAEVKKPGATVKISCKVSGYTFTSYWMYWVRQATGQGLEWMGRIDPNSGSTKYNEKFKNRVTITADKSTSTAYMELSSLRSEDTAVYYCARDYRKGLYAMDYWGQGTTVTVSS
VL: EIVLTQSPDFQSVTPKEKVTITCKASQDVGTAVAWYLQKPGQSPQLLIYWASTRHTGVPDRFSGSGSGTDFTLKISRVEAEDVGVYYCQQYNSYPLTFGQGTKVEIKR
notes: as for B1
B9: BAP058-hum05 (antibody, human IgG4 S228P, kappa, V domains shown)
VH: EVQLVQSGAEVKKPGATVKISCKVSGYTFTSYWMYWIRQSPSRGLEWLGRIDPNSGSTKYNEKFKNRLTISKDTSKNQVVLTMTNMDPVDTATYYCARDYRKGLYAMDYWGQGTTVTVSS
VL: EIVLTQSPDFQSVTPKEKVTITCKASQDVGTAVAWYLQKPGQSPQLLIYWASTRHTGVPSRFSGSGSGTDFTFTISSLQPEDIATYYCQQYNSYPLTFGQGTKVEIKR
notes: as for B1
B10: BAP058-hum06 (antibody, human IgG4 S228P, kappa, V domains shown)
VH: EVQLVQSGAEVKKPGESLRISCKGSGYTFTSYWMYWIRQPPGKGLEWIGRIDPNSGSTKYNEKFKNRVTITADKSTSTAYMELSSLRSEDTAVYYCARDYRKGLYAMDYWGQGTTVTVSS
VL: EIVLTQSPDFQSVTPKEKVTITCKASQDVGTAVAWYLQKPGQSPQLLIYWASTRHTGVPSRFSGSGSGTDFTFTISSLQPEDIATYYCQQYNSYPLTFGQGTKVEIKR
notes: as for B1
B11: BAP058-hum04 (antibody, human IgG4 S228P, kappa, V domains shown)
VH: EVQLVQSGAEVKKPGESLRISCKGSGYTFTSYWMYWVRQAPGQGLEWMGRIDPNSGSTKYNEKFKNRVTISVDTSKNQFSLKLSSVTAADTAVYYCARDYRKGLYAMDYWGQGTTVTVSS
VL: EIVLTQSPDFQSVTPKEKVTITCKASQDVGTAVAWYLQKPGQSPQLLIYWASTRHTGVPSRFSGSGSGTDFTFTISSLQPEDIATYYCQQYNSYPLTFGQGTKVEIKR
notes: as for B1
B12: BAP058-hum15 (antibody, human IgG4 S228P, kappa, V domains shown)
VH: EVQLVQSGAEVKKPGESLRISCKGSGYTFTSYWMYWIRQPPGKGLEWIGRIDPNSGSTKYNEKFKNRVTITADKSTSTAYMELSSLRSEDTAVYYCARDYRKGLYAMDYWGQGTTVTVSS
VL: EIVLTQSPDFQSVTPKEKVTITCKASQDVGTAVAWYQQKPGQAPRLLIYWASTRHTGVPSRFSGSGSGTEFTLTISSLQPDDFATYYCQQYNSYPLTFGQGTKVEIKR
notes: as for B1
B13: chimeric mAb BAP058-chi (antibody, V domains shown)
VH: EVQLQQSGAELVKPGASVKLSCKASGYTFTSYWMYWVKQGPGRGLEWIGRIDPNSGSTKYNEKFKNKATLTVDKSSSTAYMQLSSLTSEDSAVYYCARDYRKGLYAMDYWGQGTTVTVSS
VL: DIMMTQSHKFMSTSVGDRVSITCKASQDVGTAVAWYQQKPGQSPKLLIYWASTRHTGVPDRFTGSGSGTDFTLTISNVQSEDLADYFCQQYNSYPLTFGQGTKVEIK
notes: also called chimeric antibody; the chimera
B14: BAP058-hum08 (antibody, human IgG4 S228P, kappa)
heavy: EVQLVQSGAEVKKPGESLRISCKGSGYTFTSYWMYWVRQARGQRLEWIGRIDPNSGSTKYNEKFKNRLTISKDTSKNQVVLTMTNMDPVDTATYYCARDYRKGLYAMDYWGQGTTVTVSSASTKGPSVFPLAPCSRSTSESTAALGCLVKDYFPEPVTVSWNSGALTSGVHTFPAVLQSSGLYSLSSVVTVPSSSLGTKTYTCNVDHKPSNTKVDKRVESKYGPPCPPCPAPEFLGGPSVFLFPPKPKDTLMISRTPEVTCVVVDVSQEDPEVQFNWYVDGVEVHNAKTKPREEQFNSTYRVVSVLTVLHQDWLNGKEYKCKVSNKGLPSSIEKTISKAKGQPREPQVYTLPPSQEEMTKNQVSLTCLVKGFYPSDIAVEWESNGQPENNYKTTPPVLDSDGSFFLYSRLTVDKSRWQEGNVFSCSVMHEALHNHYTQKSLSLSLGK
light: DVVMTQSPLSLPVTLGQPASISCKASQDVGTAVAWYQQKPGQAPRLLIYWASTRHTGVPSRFSGSGSGTEFTLTISSLQPDDFATYYCQQYNSYPLTFGQGTKVEIKRTVAAPSVFIFPPSDEQLKSGTASVVCLLNNFYPREAKVQWKVDNALQSGNSQESVTEQDSKDSTYSLSSTLTLSKADYEKHKVYACEVTHQGLSSPVTKSFNRGEC
notes: as for B1
B15: BAP058-hum17 (antibody, human IgG4 S228P, kappa)
heavy: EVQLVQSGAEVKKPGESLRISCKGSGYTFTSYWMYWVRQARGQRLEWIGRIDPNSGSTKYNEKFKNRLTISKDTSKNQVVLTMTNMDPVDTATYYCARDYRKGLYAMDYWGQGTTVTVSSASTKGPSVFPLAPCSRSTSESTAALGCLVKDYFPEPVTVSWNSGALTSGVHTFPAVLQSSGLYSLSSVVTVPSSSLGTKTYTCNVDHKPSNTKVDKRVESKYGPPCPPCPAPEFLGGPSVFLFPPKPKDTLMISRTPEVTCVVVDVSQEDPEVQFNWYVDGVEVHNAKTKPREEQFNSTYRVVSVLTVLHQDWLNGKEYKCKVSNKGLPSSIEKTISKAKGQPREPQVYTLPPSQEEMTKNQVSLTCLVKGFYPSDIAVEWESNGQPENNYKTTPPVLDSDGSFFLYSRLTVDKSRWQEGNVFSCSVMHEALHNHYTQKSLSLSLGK
light: EIVLTQSPDFQSVTPKEKVTITCKASQDVGTAVAWYQQKPGQAPRLLIYWASTRHTGVPSRFSGSGSGTEFTLTISSLQPDDFATYYCQQYNSYPLTFGQGTKVEIKRTVAAPSVFIFPPSDEQLKSGTASVVCLLNNFYPREAKVQWKVDNALQSGNSQESVTEQDSKDSTYSLSSTLTLSKADYEKHKVYACEVTHQGLSSPVTKSFNRGEC
notes: as for B1
B16: BAP058-hum10 (antibody, human IgG4 S228P, kappa, V domains shown)
VH: QITLKESGPTLVKPTQTLTLTCTFSGYTFTSYWMYWVRQAPGKGLEWVSRIDPNSGSTKYNEKFKNRVTITADKSTSTAYMELSSLRSEDTAVYYCARDYRKGLYAMDYWGQGTTVTVSS
VL: DVVMTQSPLSLPVTLGQPASISCKASQDVGTAVAWYQQKPGQAPRLLIYWASTRHTGVPSRFSGSGSGTEFTLTISSLQPDDFATYYCQQYNSYPLTFGQGTKVEIKR
notes: as for B1

What was measured:
[1] = target: T1, human PD-L1 expressed on 300.19 cells (human, UniProt Q9NZQ7 19-290); experiment: competition FACS against Alexa 488-labeled murine BAP058 on PD-L1-expressing 300.19 cells
T1 construct: whole, on cells; also called huPD-L1; PD-L1-expressing 300.19 cells
Method: Incubations with the mAb mixtures having different concentration ratios of test mAb to labeled mAb was at 4° C. for 30 min. Bound labeled murine mAb was then quantified using a FACS machine. The experiment was performed twice.

[2] = target: T1, human PD-L1 expressed on 300.19 cells; experiment: semi-quantitative ranking in the binding studies (4th column, p-1058; FACS data, p-1056); high number = poorer binder; the column's head says only 'Rank'
[3] = target: T1, human PD-L1 expressed on 300.19 cells; experiment: blocking of PE-labelled PD-1-Ig (0.7 µg/mL) binding to PD-L1-expressing 300.19 cells, FACS, 4 C, 4 h
Method: Bound fluorescence was then measured using FACS and IC₅₀ values determined using Prism software.

[4] = target: T2, human PD-L1 protein (human, UniProt Q9NZQ7 19-238, limits assumed); experiment: Biacore T-100; IgG captured by anti-human Fab on CM5 chip, PD-L1 flowed over (100-1.56 nM), 1:1 fit
T2 construct: Construct not described
Method: (§1) Immobilization was done at 25° C. using a flow rate of 10 μl/min. […] Test antibody was captured on Flow cell FC2, FC3 and FC4. […] Run Biacore Wizards Kinetic/Affinity: association time 120 sec, dissociation 600 sec. (Running buffer HBS-EP+BSA 0.25 mg/ml, Regeneration buffer: 10 mM glycine HCl pH 2.1). Data analyses were done with Biacore T-100 Evaluation software version 2, fit on 1:1.

[5] = target: T3, cynomolgus PD-L1 protein (cynomolgus, UniProt G7PSE7 19-238); experiment: as above
T3 construct: also called Monkey PD-L1; cyno PD-L1
Method: as §1

[6] = target: mouse PD-L1 protein (mouse, UniProt Q9EP73 19-238, limits assumed); experiment: as above
Method: as §1

[7] = target: rat PD-L1 protein (rat, UniProt D4AE25 19-239); experiment: as above
Method: as §1

T1 sequence (Q9NZQ7 19-290): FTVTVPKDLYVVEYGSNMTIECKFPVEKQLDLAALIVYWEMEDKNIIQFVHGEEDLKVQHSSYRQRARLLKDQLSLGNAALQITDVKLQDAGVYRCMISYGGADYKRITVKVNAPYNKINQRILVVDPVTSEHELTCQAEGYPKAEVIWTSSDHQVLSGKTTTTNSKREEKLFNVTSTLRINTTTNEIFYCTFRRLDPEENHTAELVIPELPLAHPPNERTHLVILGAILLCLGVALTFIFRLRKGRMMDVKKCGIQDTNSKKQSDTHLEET
Chain of mouse PD-L1 protein (Q9EP73 19-238 limits assumed): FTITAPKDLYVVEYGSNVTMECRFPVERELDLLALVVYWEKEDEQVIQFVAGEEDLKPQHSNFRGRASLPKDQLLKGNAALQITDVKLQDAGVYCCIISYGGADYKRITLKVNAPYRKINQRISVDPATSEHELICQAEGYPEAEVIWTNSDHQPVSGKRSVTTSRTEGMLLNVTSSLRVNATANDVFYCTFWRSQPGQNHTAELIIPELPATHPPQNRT
Chain of rat PD-L1 protein (D4AE25 entry or part of it limits assumed): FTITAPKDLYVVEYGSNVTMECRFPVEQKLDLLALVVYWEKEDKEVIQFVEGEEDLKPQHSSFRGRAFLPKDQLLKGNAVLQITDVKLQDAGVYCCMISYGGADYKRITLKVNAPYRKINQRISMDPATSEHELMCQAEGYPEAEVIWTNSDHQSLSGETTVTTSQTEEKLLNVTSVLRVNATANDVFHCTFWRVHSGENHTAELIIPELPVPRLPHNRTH
T2 sequence (Q9NZQ7 19-238 limits assumed): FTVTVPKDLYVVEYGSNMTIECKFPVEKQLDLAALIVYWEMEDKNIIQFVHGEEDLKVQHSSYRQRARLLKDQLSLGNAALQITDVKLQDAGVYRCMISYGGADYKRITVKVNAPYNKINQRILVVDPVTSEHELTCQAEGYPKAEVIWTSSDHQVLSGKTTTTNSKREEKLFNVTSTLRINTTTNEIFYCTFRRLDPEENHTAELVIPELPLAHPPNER
T3 sequence (G7PSE7 entry or part of it): as the sequence (Q9NZQ7 19-238 limits assumed) above, with A33T, A34S, S62N, R68Q, Q82R, F173L, T185A, T192I, H215L counted along it

Row | Binder | Comp. binding (ratio conc. test mAb / conc. labelled murine BAP058 at the IC50) [1] | Rank [2] | further results
1 | B1 | 2.56 | 17 | 
2 | B2 | 1.96 | 3 | 
3 | B3 | 2.14 | 17 | 
4 | B4 | 4.59 | 4 | 
5 | B5 | 1.8 | 2 | IC50 (read off the curve) [3]: ~0.04 µg/mL
6 | B6 | 2.47 | 4 | 
7 | B7 | 2.27 | 4 | 
8 | B8 | 1.87 | 1 | IC50 (read off the curve) [3]: ~0.04 µg/mL
9 | B9 | 1.71 | 2 | 
10 | B10 | 1.39 | 2 | 
11 | B11 | 1.13 | 3 | Kd [4]: 2.14 nM; Kd [5]: 0.369 nM; Kd [6]: 77.4 nM; Kd [7]: 6.14 nM; IC50 (read off the curve) [3]: ~0.04 µg/mL
12 | B12 | 4.64 | 17 | 
13 | B13 |  |  | IC50 (read off the curve) [3]: ~0.04 µg/mL
14 | B14 | 3.38 | 17 | 
15 | B15 | 2.16 | 4 | 
16 | B16 |  | 4 | 
